According to patent US20220220174A1 (BIMYO, published 2022):
Read-outs that look alike come from different tables or passages of the source.

Assays:
[1] = molecular target: T1, recombinant BNIP3 (BCL-2 adenovirus E1B 19 kDa interacting protein-3) (mouse, UniProt O55003 1-187, limits assumed, labelled with DyLight 650 for the microarray); assay: peptide microarray, immobilised peptide, labelled recombinant BNIP3 in solution
T1 construct: Bought recombinant protein (cusabio); also called recombinant BNIP3 (cusabio)
Description: (§1) Interaction studies. For protein-peptide interaction studies, peptide libraries were synthesised and immobilised on microarray slides.
(§2) Microarray. […] As labelling kit a DyLight Microscale Antibody Labeling Kit (Thermo) with label Dylight 650 was used. The assay was performed using the automated TECAN HS4800 microarray processing station. Microarrays were incubated with customer provided samples diluted in blocking buffer for 2 h at 30° C. Before each step, microarrays were washed with washing buffer. Microarrays were scanned using a high-resolution fluorescence scanner. Laser settings and applied resolution were identical for all performed measurements. The resulting images were analyzed und quantified using spot-recognition software GenePix (Molecular Devices). […] For further data evaluation, the so called MMC2 values were determined. The MMC2 equals the mean value of all three instances on the microarray except when the coefficient of variation (CV)—standard-deviation divided by the mean value—is larger 0.5. In this case the mean of the two closest values (MC2) is assigned to MMC2. All steps were performed by JPT Peptide Technologies (Berlin, Germany).

[2] = molecular target: T1, recombinant BNIP3 (BCL-2 adenovirus E1B …); assay: as above; remark: listed apart in the source
Description: as §1, §2

B1: BNIP3-20A peptide sequence MSQSGEENLQGSWVELHFSN (BNIP3 amino acids 1-20, wild type) (peptide)
peptide: MSQSGEENLQGSWVELHFSN
notes: Peptide immobilised on the microarray; also called BNIP3 1-20
Fluorescence intensity [1]: 1040 arbitrary units | Fluorescence intensity [2]: 1040 arbitrary units

MSQSGEENLQGCWVELHFSN (Peptide immobilised on a microarray slide; attachment chemistry not stated., Peptide immobilised on the microarray) [substituted BNIP3-20A peptide MSQSGEENLQGCWVELHFSN (S12 -> C)]
Fluorescence intensity [2]: 7040 arbitrary units

MSQSGEENLQGSWVCLHFSN (Peptide immobilised on a microarray slide; attachment chemistry not stated., Peptide immobilised on the microarray) [substituted BNIP3-20A peptide MSQSGEENLQGSWVCLHFSN (E15 -> C)]
Fluorescence intensity [2]: 7150 arbitrary units

MSQSGEENLQGSWVELCFSN (Peptide immobilised on a microarray slide; attachment chemistry not stated., Peptide immobilised on the microarray) [substituted BNIP3-20A peptide MSQSGEENLQGSWVELCFSN (H17 -> C)]
Fluorescence intensity [2]: 6790 arbitrary units

MSQSGEENLQGSWVELHFFN (Peptide immobilised on the microarray) [substituted BNIP3-20A peptide MSQSGEENLQGSWVELHFFN (S19 -> F)]
Fluorescence intensity [2]: 15000 arbitrary units

MSQSGEENLQGSWVELYFSN (Peptide immobilised on a microarray slide; attachment chemistry not stated., Peptide immobilised on the microarray) [substituted BNIP3-20A peptide MSQSGEENLQGSWVELYFSN (H17 -> Y)]
Fluorescence intensity [2]: 7990 arbitrary units

MSQSGEENLQYSWVELHFSN (Peptide immobilised on a microarray slide; attachment chemistry not stated., Peptide immobilised on the microarray) [substituted BNIP3-20A peptide MSQSGEENLQYSWVELHFSN (G11 -> Y)]
Fluorescence intensity [2]: 10200 arbitrary units

MSQSGYENLQGSWVELHFSN (Peptide immobilised on a microarray slide; attachment chemistry not stated., Peptide immobilised on the microarray) [substituted BNIP3-20A peptide MSQSGYENLQGSWVELHFSN (E6 -> Y)]
Fluorescence intensity [2]: 13100 arbitrary units

B2: truncated BNIP3-20A fragment SGEENLQGSWVELHFSN (peptide)
peptide: SGEENLQGSWVELHFSN
notes: Peptide immobilised on the microarray; also called BNIP3 4-20
Fluorescence intensity [1]: 2660 arbitrary units

B3: truncated BNIP3-20A fragment SWVELHFSN (peptide)
peptide: SWVELHFSN
notes: Peptide immobilised on the microarray; also called BNIP3 12-20
Fluorescence intensity [1]: 4890 arbitrary units

B4: truncated BNIP3-20A fragment WVELHFSN (peptide)
peptide: WVELHFSN
notes: Peptide immobilised on the microarray; also called BNIP3 13-20
Fluorescence intensity [1]: 14400 arbitrary units
